# US20250295772A1 (ABATA THERAPEUTICS, published 2025)
# Positions count from the first letter of the chain named.
# T1: preproinsulin 73-90 peptide complexed with HLA-DRB1*04:01 (human, UniProt P01903 26-254; P01911 30-266)
# T1 MHC II alpha: not shown
# T1 MHC II beta: not shown
# T1 peptide: GAGSLQPLALEGSLQKRG
# B1: TCR-H (TCR)
# TCR alpha: EDQVTQSPEALRLQEGESSSLNCSYTVSGLRGLFWYRQDPGKGPEFLFTLYSAGEEKEKERLKATLTKKESFLHITAPKPEDSATYLCAVQLSDSNYKLTFGKGTLLTVNPNIQNPDPAVYQLRDSKSSDKSVCLFTDFDSQTNVSQSKDSDVYITDKTVLDMRSMDFKSNSAVAWSNKSDFACANAFNNSIIPEDTFFPSPESSCDVKLVEKSFETDTNLNFQNLSVIGFRILLLKVAGFNLLMTLRLWSS
# TCR beta: NAGVTQTPKFQVLKTGQSMTLQCAQDMNHNSMYWYRQDPGMGLRLIYYSASEGTTDKGEVPNGYNVSRLNKREFSLRLESAAPSQTSVYFCASRGQVNEKLFFGSGTQLSVLEDLNKVFPPEVAVFEPSEAEISHTQKATLVCLATGFFPDHVELSWWVNGKEVHSGVSTDPQPLKEQPALNDSRYCLSSRLRVSATFWQNPRNHFRCQVQFYGLSENDEWTQDRAKPVTQIVSAEAWGRADCGFTSVSYQQGVLSATILYEILLGKATLYAVLVSALVLMAMVKRKDF
# B2: TCR-H DS (TCR)
# TCR alpha: B1 TCR alpha with T159C
# TCR beta: B1 TCR beta with S169C
# B3: TCR-G (TCR)
# TCR alpha: QKEVEQNSGPLSVPEGAIASLNCTYSDRGSQSFFWYRQYSGKSPELIMFIYSNGDKEDGRFTAQLNKASQYVSLLIRDSQPSDSATYLCAVIYSSASKIIFGSGTRLSIRPNIQNPDPAVYQLRDSKSSDKSVCLFTDFDSQTNVSQSKDSDVYITDKTVLDMRSMDFKSNSAVAWSNKSDFACANAFNNSIIPEDTFFPSPESSCDVKLVEKSFETDTNLNFQNLSVIGFRILLLKVAGFNLLMTLRLWSS
# TCR beta: SQTIHQWPATLVQPVGSPLSLECTVEGTSNPNLYWYRQAAGRGLQLLFYSVGIGQISSEVPQNLSASRPQDRQFILSSKKLLLSDSGFYLCAWSVQRLGRGGETQYFGPGTRLLVLEDLKNVFPPEVAVFEPSEAEISHTQKATLVCLATGFYPDHVELSWWVNGKEVHSGVSTDPQPLKEQPALNDSRYCLSSRLRVSATFWQNPRNHFRCQVQFYGLSENDEWTQDRAKPVTQIVSAEAWGRADCGFTSESYQQGVLSATILYEILLGKATLYAVLVSALVLMAMVKRKDSRG
# B4: TCR-G DS (TCR)
# TCR alpha: B3 TCR alpha with T159C
# TCR beta: B3 TCR beta with S173C
# B5: TCR-F (TCR)
# TCR alpha: EDQVTQSPEALRLQEGESSSLNCSYTVSGLRGLFWYRQDPGKGPEFLFTLYSAGEEKEKERLKATLTKKESFLHITAPKPEDSATYLCAVQATGYALNFGKGTSLLVTPHIQNPDPAVYQLRDSKSSDKSVCLFTDFDSQTNVSQSKDSDVYITDKTVLDMRSMDFKSNSAVAWSNKSDFACANAFNNSIIPEDTFFPSPESSCDVKLVEKSFETDTNLNFQNLSVIGFRILLLKVAGFNLLMTLRLWSS
# TCR beta: GAGVSQSPSNKVTEKGKDVELRCDPISGHTALYWYRQSLGQGLEFLIYFQGNSAPDKSGLPSDRFSAERTGGSVSTLTIQRTQQEDSAVYLCASNLGGSRQPQHFGDGTRLSILEDLNKVFPPEVAVFEPSEAEISHTQKATLVCLATGFFPDHVELSWWVNGKEVHSGVSTDPQPLKEQPALNDSRYCLSSRLRVSATFWQNPRNHFRCQVQFYGLSENDEWTQDRAKPVTQIVSAEAWGRADCGFTSVSYQQGVLSATILYEILLGKATLYAVLVSALVLMAMVKRKDF
# B6: TCR-F DS (TCR)
# TCR alpha: B5 TCR alpha with T157C
# TCR beta: B5 TCR beta with S171C
# B7: TCR-C (TCR)
# TCR alpha: RGNGKNQVEQSPQSLIILEGKNCTLQCNYTVSPFSNLRWYKQDTGRGPVSLTIMTFSENTKSNGRYTATLDADTKQSSLHITASQLSDSASYICVVGPSGGSNYKLTFGKGTLLTVNPNIQNPDPAVYQLRDSKSSDKSVCLFTDFDSQTNVSQSKDSDVYITDKTVLDMRSMDFKSNSAVAWSNKSDFACANAFNNSIIPEDTFFPSPESSCDVKLVEKSFETDTNLNFQNLSVIGFRILLLKVAGFNLLMTLRLWSS
# TCR beta: DSGVTQTPKHLITATGQRVTLRCSPRSGDLSVYWYQQSLDQGLQFLIQYYNGEERAKGNILERFSAQQFPDLHSELNLSSLELGDSALYFCASSGQGFLGNTEAFFGQGTRLTVVEDLNKVFPPEVAVFEPSEAEISHTQKATLVCLATGFFPDHVELSWWVNGKEVHSGVSTDPQPLKEQPALNDSRYCLSSRLRVSATFWQNPRNHFRCQVQFYGLSENDEWTQDRAKPVTQIVSAEAWGRADCGFTSVSYQQGVLSATILYEILLGKATLYAVLVSALVLMAMVKRKDF
# B8: TCR-C DS (TCR)
# TCR alpha: B7 TCR alpha with T166C
# TCR beta: B7 TCR beta with S172C
# B9: TCR-I (TCR)
# TCR alpha: IDAKTTQPTSMDCAEGRAANLPCNHSTISGNEYVYWYRQIHSQGPQYIIHGLKNNETNEMASLIITEDRKSSTLILPHATLRDTAVYYCIVRFQSGGYQKVTFGTGTKLQVIPNIQNPDPAVYQLRDSKSSDKSVCLFTDFDSQTNVSQSKDSDVYITDKTVLDMRSMDFKSNSAVAWSNKSDFACANAFNNSIIPEDTFFPSPESSCDVKLVEKSFETDTNLNFQNLSVIGFRILLLKVAGFNLLMTLRLWSS
# TCR beta: DAGVIQSPRHEVTEMGQEVTLRCKPISGHNSLFWYRQTMMRGLELLIYFNNNVPIDDSGMPEDRFSAKMPNASFSTLKIQPSEPRDSAVYFCASSIQAGGRYNEQFFGPGTRLTVLEDLKNVFPPEVAVFEPSEAEISHTQKATLVCLATGFYPDHVELSWWVNGKEVHSGVSTDPQPLKEQPALNDSRYCLSSRLRVSATFWQNPRNHFRCQVQFYGLSENDEWTQDRAKPVTQIVSAEAWGRADCGFTSESYQQGVLSATILYEILLGKATLYAVLVSALVLMAMVKRKDSRG
# B10: TCR-I DS (TCR)
# TCR alpha: B9 TCR alpha with T161C
# TCR beta: B9 TCR beta with S173C
# B11: TCR-D (TCR)
# TCR alpha: NSVTQMEGPVTLSEEAFLTINCTYTATGYPSLFWYVQYPGEGLQLLLKATKADDKGSNKGFEATYRKETTSFHLEKGSVQVSDSAVYFCALSEKTSYDKVIFGPGTSLSVIPNIQNPDPAVYQLRDSKSSDKSVCLFTDFDSQTNVSQSKDSDVYITDKTVLDMRSMDFKSNSAVAWSNKSDFACANAFNNSIIPEDTFFPSPESSCDVKLVEKSFETDTNLNFQNLSVIGFRILLLKVAGFNLLMTLRLWSS
# TCR beta: NAGVTQTPKFRILKIGQSMTLQCTQDMNHNYMYWYRQDPGMGLKLIYYSVGAGITDKGEVPNGYNVSRSTTEDFPLRLELAAPSQTSVYFCASSYGPGGSEAFFGQGTRLTVVEDLNKVFPPEVAVFEPSEAEISHTQKATLVCLATGFFPDHVELSWWVNGKEVHSGVSTDPQPLKEQPALNDSRYCLSSRLRVSATFWQNPRNHFRCQVQFYGLSENDEWTQDRAKPVTQIVSAEAWGRADCGFTSVSYQQGVLSATILYEILLGKATLYAVLVSALVLMAMVKRKDF
# B12: TCR-E DS (TCR)
# TCR alpha: B11 TCR alpha with E93V, T160C
# TCR beta: NAGVTQTPKFQVLKTGQSMTLQCAQDMNHNSMYWYRQDPGMGLRLIYYSASEGTTDKGEVPNGYNVSRLNKREFSLRLESAAPSQTSVYFCASSRDRGPETQYFGPGTRLLVLEDLKNVFPPEVAVFEPSEAEISHTQKATLVCLATGFYPDHVELSWWVNGKEVHSGVCTDPQPLKEQPALNDSRYCLSSRLRVSATFWQNPRNHFRCQVQFYGLSENDEWTQDRAKPVTQIVSAEAWGRADCGFTSESYQQGVLSATILYEILLGKATLYAVLVSALVLMAMVKRKDSRG
# B13: TCR-D DS (TCR)
# TCR alpha: B11 TCR alpha with T160C
# TCR beta: B11 TCR beta with S170C
# B14: TCR-E (TCR)
# TCR alpha: B11 TCR alpha with E93V
# TCR beta: B12 TCR beta with C170S
# B15: TCR-B (TCR)
# TCR alpha: EDKVVQSPLSLVVHEGDTVTLNCSYEVTNFRSLLWYKQEKKAPTFLFMLTSSGIEKKSGRLSSILDKKELFSILNITATQTGDSAVYLCAVNSGAGSYQLTFGKGTKLSVIPNIQNPDPAVYQLRDSKSSDKSVCLFTDFDSQTNVSQSKDSDVYITDKTVLDMRSMDFKSNSAVAWSNKSDFACANAFNNSIIPEDTFFPSPESSCDVKLVEKSFETDTNLNFQNLSVIGFRILLLKVAGFNLLMTLRLWSS
# TCR beta: DAEITQSPRHKITETGRQVTLACHQTWNHNNMFWYRQDLGHGLRLIHYSYGVQDTNKGEVSDGYSVSRSNTEDLPLTLESAASSQTSVYFCASSSGGLYEQYFGPGTRLTVTEDLKNVFPPEVAVFEPSEAEISHTQKATLVCLATGFYPDHVELSWWVNGKEVHSGVSTDPQPLKEQPALNDSRYCLSSRLRVSATFWQNPRNHFRCQVQFYGLSENDEWTQDRAKPVTQIVSAEAWGRADCGFTSESYQQGVLSATILYEILLGKATLYAVLVSALVLMAMVKRKDSRG
# B16: TCR-B DS (TCR)
# TCR alpha: B15 TCR alpha with T160C
# TCR beta: B15 TCR beta with S169C
# Target: T1, preproinsulin 73-90 peptide complexed …
# Assay: cell-based or functional assay
row,Binder,"EC50 (nM) of CD69 upregulation, conventional CD4+ T cells + BLS-DRB1*04:01 cells, peptide titrated"
1,B1,0.93 nM
2,B2,0.62 nM
3,B3,11.2 nM
4,B4,1.89 nM
5,B5,1.5 nM
6,B6,1.36 nM
7,B7,156 nM
8,B8,24.2 nM
9,B9,14.9 nM
10,B10,8.03 nM
11,B11,4.42 nM
12,B12,3.47 nM
13,B13,2.18 nM
14,B14,7.78 nM
15,B15,5.68 nM
16,B16,3.78 nM
